Data taken from US20260240959A1, “METHODS FOR IN VIVO EDITING OF KLKB1” (INTELLIA THERAPEUTICS, INC., priority 2022, published 2026).
In the oligonucleotide strings, read from the 5' end, every base follows the letter of its sugar. An asterisk marks phosphorothioate; unmarked linkages are phosphodiester. Other units and linkages are bracketed, terminal groups are in braces. A string of capitals states the bases alone. m = 2'-O-methyl; r = 2'-OH (RNA)

Legend:
[1] = tested on: plasma kallikrein protein; assay: Plasma kallikrein protein level in cynomolgus monkeys; assay type: in vivo, cynomolgus monkey; details: n=3
Experimental: (§1) Cynomolgus monkeys were treated in cohorts of n=3. This study was conducted with LNP formulations according to Example 1. […]. Animals were dosed at 1.5, 3, or 6 mg per kg doses based on total RNA cargo. Indel formation (percent editing) was measured by NGS. Total kallikrein activity and plasma kallikrein protein level were measured as described above. […]

plasma kallikrein = assay: Plasma kallikrein activity in cynomolgus monkeys; assay type: in vivo, cynomolgus monkey
Experimental: as §1

B1: G013901: cynomolgus specific KLKB1 guide RNA (SEQ ID NO: 409); dosed as LNP formulation with Cas9 mRNA (nucleic acid)
guide: mG*mG*mA*rUrUrArCrArUrArUrGrGrGrArCrArCrArArGrUrUrUrUrArGrAmGmCmUmAmGmAmAmAmUmAmGmCrArArGrUrUrArArArArUrArArGrGrCrUrArGrUrCrCrGrUrUrArUrCrAmAmCmUmUmGmAmAmAmAmAmGmUmGmGmCmAmCmCmGmAmGmUmCmGmGmUmGmCmU*mU*mU*mU
Plasma Kallikrein Protein Levels (% of basal level), Mean ([1]; 1.5 mpk, Day 14): 28.8 % of basal level | Plasma Kallikrein Protein Levels (% of basal level), Mean ([1]; 1.5 mpk, Day 28): 32.7 % of basal level | Plasma Kallikrein Protein Levels (% of basal level), Mean ([1]; 1.5 mpk, Day 42): 31.5 % of basal level | Plasma Kallikrein Protein Levels (% of basal level), Mean ([1]; 1.5 mpk, Day 56): 30.1 % of basal level | Plasma Kallikrein Protein Levels (% of basal level), Mean ([1]; 1.5 mpk, Day 70): 29.8 % of basal level | Plasma Kallikrein Protein Levels (% of basal level), Mean ([1]; 1.5 mpk, Day 84): 38.7 % of basal level | Plasma Kallikrein Protein Levels (% of basal level), Mean ([1]; 1.5 mpk, Day 105): 47 % of basal level | Plasma Kallikrein Protein Levels (% of basal level), Mean ([1]; 1.5 mpk, Day 119): 31.6 % of basal level | Plasma Kallikrein Protein Levels (% of basal level), Mean ([1]; 1.5 mpk, Day 147): 32.1 % of basal level | Plasma Kallikrein Protein Levels (% of basal level), Mean ([1]; 1.5 mpk, Day 161): 35.8 % of basal level | Plasma Kallikrein Protein Levels (% of basal level), Mean ([1]; 1.5 mpk, Day 180): 33.8 % of basal level | Plasma Kallikrein Protein Levels (% of basal level), Mean ([1]; 1.5 mpk, Day 238): 27.4 % of basal level | Plasma Kallikrein Protein Levels (% of basal level), Mean ([1]; 1.5 mpk, Day 252): 27.9 % of basal level | Plasma Kallikrein Protein Levels (% of basal level), Mean ([1]; 1.5 mpk, Day 266): 28.7 % of basal level | Plasma Kallikrein Protein Levels (% of basal level), Mean ([1]; 1.5 mpk, Day 280): 33.7 % of basal level | Plasma Kallikrein Protein Levels (% of basal level), Mean ([1]; 1.5 mpk, Day 294): 30.4 % of basal level | Plasma Kallikrein Protein Levels (% of basal level), Mean ([1]; 1.5 mpk, Day 308): 20.6 % of basal level | Plasma Kallikrein Protein Levels (% of basal level), Mean ([1]; 1.5 mpk, Day 326): 29.7 % of basal level | Plasma Kallikrein Protein Levels (% of basal level), Mean ([1]; 1.5 mpk, Day 333): 30.9 % of basal level | Plasma Kallikrein Protein Levels (% of basal level), Mean ([1]; 1.5 mpk, Day 347): 26 % of basal level | Plasma Kallikrein Protein Levels (% of basal level), Mean ([1]; 1.5 mpk, Day 365): 22.7 % of basal level | Plasma Kallikrein Protein Levels (% of basal level), Mean ([1]; 3 mpk, Day 14): 27.1 % of basal level | Plasma Kallikrein Protein Levels (% of basal level), Mean ([1]; 3 mpk, Day 28): 16.9 % of basal level | Plasma Kallikrein Protein Levels (% of basal level), Mean ([1]; 3 mpk, Day 42): 16 % of basal level | Plasma Kallikrein Protein Levels (% of basal level), Mean ([1]; 3 mpk, Day 56): 15.4 % of basal level | Plasma Kallikrein Protein Levels (% of basal level), Mean ([1]; 3 mpk, Day 70): 15.4 % of basal level | Plasma Kallikrein Protein Levels (% of basal level), Mean ([1]; 3 mpk, Day 84): 17.1 % of basal level | Plasma Kallikrein Protein Levels (% of basal level), Mean ([1]; 3 mpk, Day 105): 22.3 % of basal level | Plasma Kallikrein Protein Levels (% of basal level), Mean ([1]; 3 mpk, Day 119): 18.1 % of basal level | Plasma Kallikrein Protein Levels (% of basal level), Mean ([1]; 3 mpk, Day 147): 18.3 % of basal level | Plasma Kallikrein Protein Levels (% of basal level), Mean ([1]; 3 mpk, Day 161): 7.5 % of basal level | Plasma Kallikrein Protein Levels (% of basal level), Mean ([1]; 3 mpk, Day 180): 18 % of basal level | Plasma Kallikrein Protein Levels (% of basal level), Mean ([1]; 3 mpk, Day 238): 16.4 % of basal level | Plasma Kallikrein Protein Levels (% of basal level), Mean ([1]; 3 mpk, Day 252): 15.6 % of basal level | Plasma Kallikrein Protein Levels (% of basal level), Mean ([1]; 3 mpk, Day 266): 21.8 % of basal level | Plasma Kallikrein Protein Levels (% of basal level), Mean ([1]; 3 mpk, Day 280): 24.6 % of basal level | Plasma Kallikrein Protein Levels (% of basal level), Mean ([1]; 3 mpk, Day 294): 24.6 % of basal level | Plasma Kallikrein Protein Levels (% of basal level), Mean ([1]; 3 mpk, Day 308): 27.6 % of basal level | Plasma Kallikrein Protein Levels (% of basal level), Mean ([1]; 3 mpk, Day 326): 23.8 % of basal level | Plasma Kallikrein Protein Levels (% of basal level), Mean ([1]; 3 mpk, Day 333): 25.3 % of basal level | Plasma Kallikrein Protein Levels (% of basal level), Mean ([1]; 3 mpk, Day 347): 22.1 % of basal level | Plasma Kallikrein Protein Levels (% of basal level), Mean ([1]; 3 mpk, Day 365): 11.4 % of basal level | Plasma Kallikrein Protein Levels (% of basal level), Mean ([1]; 6 mpk, Day 14): 13.7 % of basal level | Plasma Kallikrein Protein Levels (% of basal level), Mean ([1]; 6 mpk, Day 28): 6.6 % of basal level | Plasma Kallikrein Protein Levels (% of basal level), Mean ([1]; 6 mpk, Day 42): 6.3 % of basal level | Plasma Kallikrein Protein Levels (% of basal level), Mean ([1]; 6 mpk, Day 56): 5.8 % of basal level | Plasma Kallikrein Protein Levels (% of basal level), Mean ([1]; 6 mpk, Day 70): 5.8 % of basal level | Plasma Kallikrein Protein Levels (% of basal level), Mean ([1]; 6 mpk, Day 84): 6.7 % of basal level | Plasma Kallikrein Protein Levels (% of basal level), Mean ([1]; 6 mpk, Day 105): 7.6 % of basal level | Plasma Kallikrein Protein Levels (% of basal level), Mean ([1]; 6 mpk, Day 119): 6.4 % of basal level | Plasma Kallikrein Protein Levels (% of basal level), Mean ([1]; 6 mpk, Day 147): 6.7 % of basal level | Plasma Kallikrein Protein Levels (% of basal level), Mean ([1]; 6 mpk, Day 161): 7.4 % of basal level | Plasma Kallikrein Protein Levels (% of basal level), Mean ([1]; 6 mpk, Day 180): 2.9 % of basal level | Plasma Kallikrein Protein Levels (% of basal level), Mean ([1]; 6 mpk, Day 238): 3.7 % of basal level | Plasma Kallikrein Protein Levels (% of basal level), Mean ([1]; 6 mpk, Day 252): 3.9 % of basal level | Plasma Kallikrein Protein Levels (% of basal level), Mean ([1]; 6 mpk, Day 266): 3.7 % of basal level | Plasma Kallikrein Protein Levels (% of basal level), Mean ([1]; 6 mpk, Day 280): 6.3 % of basal level | Plasma Kallikrein Protein Levels (% of basal level), Mean ([1]; 6 mpk, Day 294): 7.4 % of basal level | Plasma Kallikrein Protein Levels (% of basal level), Mean ([1]; 6 mpk, Day 308): 6.2 % of basal level | Plasma Kallikrein Protein Levels (% of basal level), Mean ([1]; 6 mpk, Day 326): 8 % of basal level | Plasma Kallikrein Protein Levels (% of basal level), Mean ([1]; 6 mpk, Day 333): 7.8 % of basal level | Plasma Kallikrein Protein Levels (% of basal level), Mean ([1]; 6 mpk, Day 347): 7.3 % of basal level | Plasma Kallikrein Protein Levels (% of basal level), Mean ([1]; 6 mpk, Day 365): 4.3 % of basal level | durability of response in NHPs (plasma kallikrein; cynomolgus monkey, in vivo): durable through one year | Kallikrein Activity (% of basal activity), Mean (plasma kallikrein; n=3, 1.5 mpk, Day 7): 67.8 % of basal activity
